Measured values from patent publication US20060099150A1.

Legend:
[1] = target: pIgR expressed on transfected MDCK cells; test: cell-based or functional assay
[2] = target: pIgR Domain 6 GST (D6-GST) fusion protein, species not stated (Schistosoma japonica) [GST: P08515]; test: SPR BIAcore, 1:1 Langmuir global fit 62.5-1000 nM; ligand not named
pIgR Domain 6 GST (D6-GST) fusion protein, species not stated (Schistosoma japonica) [GST: P08515], sequence (P08515 whole entry, the tested form may be a part): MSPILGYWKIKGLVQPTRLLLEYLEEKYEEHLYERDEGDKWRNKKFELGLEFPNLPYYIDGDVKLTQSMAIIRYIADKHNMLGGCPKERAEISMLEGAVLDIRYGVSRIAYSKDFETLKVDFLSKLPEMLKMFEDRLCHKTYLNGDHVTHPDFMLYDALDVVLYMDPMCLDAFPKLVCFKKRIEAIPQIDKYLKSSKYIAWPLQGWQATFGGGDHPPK

B1: sFv5AF (scFv)
scFv: DYKAKQVQLVQSGGGVVQPGRSLRLSCAASGFTFSSYAMHWVRQAPGKGLEWVSAISGSGGSTYYADSVKGRFTISRDNAKNSLYLQMNSLRAEDTAVYYCARDTRGYFDLWGRGTLVTVSSGGGGSGGGGSGGGGSSELTQDPAMSVALGQTVRITCQGDSLRKYHASWYQQRPRQAPRLVVYGKNERPSGIPERFSGSTSGDTASLTISGLQAEDEADYYCHSRDSNADLVVFGGGTKVTVLGAAAEQKLISEEDLNGAAHHHHHH
Work on B1 yielded a transcytosis on pIgR expressing MDCK cells overnight [1] of 2%, a Ka [2] of 4.47e+06 M⁻¹ and a Kd [2] of 224 nM. It also gave a koff [2] of 0.00464 s⁻¹ and a kon [2] of 27100 M⁻¹ s⁻¹.
